Data published in EP1073891B1, “METHOD OF PREDICTING RECEPTOR MODULATING ACTIVITY” (Duke University, priority 1998, dated 1999).
“And” between values parts separate entries of the source, which are not always exact repeats. Equal values may be shown once. Blank lines part the entries; values can stand above or below the substance they belong to.

Legend:
ERβ = ERβ (Homo sapiens, UniProt Q92731); test: Phage ELISA / fingerprint on ER immobilized on biotinylated ERE (Examples 2.3-2.5); format: binding; design: purchased PanVera Corporation, Madison, WI; key: semiquantitative scale of 0 to 7+; 1+: semiquantitative scale of 0 to 7+; 2+: semiquantitative scale of 0 to 7+; 3+: semiquantitative scale of 0 to 7+; 4+: semiquantitative scale of 0 to 7+; 5+: semiquantitative scale of 0 to 7+; 6+: semiquantitative scale of 0 to 7+; semiquantitative scale of 0 to 7+; settings: for binding activity, ERβ and Estradiol: ERβ and Estradiol (1 µM); for binding activity, ERβ and tamoxifen: ERβ and tamoxifen (4-OH tamoxifen, 1 µM)
ERα = target: T1, ERα (Homo sapiens, UniProt P03372); test: as above; format: binding; design: purchased PanVera Corporation, Madison, WI; key to binding activity, ERα and buffer / binding activity, ERα and estradiol / binding activity, ERα and tamoxifen / binding of peptide, Class Specific Fingerprint on ERα: semiquantitative scale of 0 to 7+; 1+: semiquantitative scale of 0 to 7+; 2+: semiquantitative scale of 0 to 7+; 3+: semiquantitative scale of 0 to 7+; 4+: semiquantitative scale of 0 to 7+; 5+: semiquantitative scale of 0 to 7+; 6+: semiquantitative scale of 0 to 7+; semiquantitative scale of 0 to 7+; settings: for binding activity, ERα and estradiol: ERα and estradiol (1 µM); for binding activity, ERα and tamoxifen: ERα and tamoxifen (4-OH tamoxifen, 1 µM)
T1 sequence (P03372 1-595): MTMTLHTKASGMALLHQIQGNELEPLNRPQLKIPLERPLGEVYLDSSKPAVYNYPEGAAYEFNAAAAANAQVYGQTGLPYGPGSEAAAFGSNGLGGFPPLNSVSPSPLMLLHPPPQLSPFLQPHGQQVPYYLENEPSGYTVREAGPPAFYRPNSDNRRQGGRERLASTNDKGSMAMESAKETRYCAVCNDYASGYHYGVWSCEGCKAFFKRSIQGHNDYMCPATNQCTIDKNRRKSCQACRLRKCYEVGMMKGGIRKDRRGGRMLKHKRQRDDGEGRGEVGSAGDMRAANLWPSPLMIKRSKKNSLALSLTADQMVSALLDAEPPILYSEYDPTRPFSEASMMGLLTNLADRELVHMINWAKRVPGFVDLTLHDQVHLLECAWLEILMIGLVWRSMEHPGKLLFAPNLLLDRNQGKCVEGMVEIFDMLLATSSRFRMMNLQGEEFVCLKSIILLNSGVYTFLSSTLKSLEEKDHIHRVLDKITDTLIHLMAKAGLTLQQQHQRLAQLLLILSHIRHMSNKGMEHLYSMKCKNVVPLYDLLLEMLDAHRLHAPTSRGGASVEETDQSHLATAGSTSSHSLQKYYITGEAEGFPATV

[1] = 4-OH Tamoxifen present during binding
[2] = 16a-OH Estrone present during binding
[3] = Clomiphene present during binding
[4] = Estradiol present during binding
[5] = ICI 182,780 present during binding
[6] = Nafoxidine present during binding
[7] = Premarin present during binding
[8] = Progesterone present during binding
[9] = Raloxifene present during binding

Sequence of ERβ (Q92731 whole entry): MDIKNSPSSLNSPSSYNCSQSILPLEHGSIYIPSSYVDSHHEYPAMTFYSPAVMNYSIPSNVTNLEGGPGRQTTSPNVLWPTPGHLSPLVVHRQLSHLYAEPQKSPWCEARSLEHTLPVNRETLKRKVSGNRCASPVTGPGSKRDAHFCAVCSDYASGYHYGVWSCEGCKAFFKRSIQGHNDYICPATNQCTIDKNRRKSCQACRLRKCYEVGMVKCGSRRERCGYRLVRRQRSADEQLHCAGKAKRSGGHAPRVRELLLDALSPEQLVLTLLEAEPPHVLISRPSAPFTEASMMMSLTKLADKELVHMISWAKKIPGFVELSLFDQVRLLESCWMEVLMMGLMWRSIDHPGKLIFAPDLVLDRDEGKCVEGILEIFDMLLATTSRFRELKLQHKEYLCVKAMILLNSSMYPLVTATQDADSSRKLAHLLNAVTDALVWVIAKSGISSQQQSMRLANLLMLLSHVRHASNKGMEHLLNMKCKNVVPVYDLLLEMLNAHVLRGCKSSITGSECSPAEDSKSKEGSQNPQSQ

binding activity, ERβ and Estradiol (ERβ): 7+ and 6+
binding activity, ERβ and buffer (ERβ): 7+
binding activity, ERβ and tamoxifen (ERβ): 3+ and 7+
binding activity, ERα and buffer (ERα): 3+
binding activity, ERα and estradiol (ERα): 6+ and 3+
binding activity, ERα and tamoxifen (ERα): 3+
Substance: HSYSSHPLLLSYLWGG [Peptide 23b-β]

binding of peptide, Class Specific Fingerprint on ERα (ERα; [1]): 6+
binding of peptide, Class Specific Fingerprint on ERα (ERα; [2]): 2+
binding of peptide, Class Specific Fingerprint on ERα (ERα; [3]): 5+
binding of peptide, Class Specific Fingerprint on ERα (ERα; DES present during binding): 3+
binding of peptide, Class Specific Fingerprint on ERα (ERα; [4]): 2+
binding of peptide, Class Specific Fingerprint on ERα (ERα; Estriol present during binding): 2+
binding of peptide, Class Specific Fingerprint on ERα (ERα; [5]): 2+
binding of peptide, Class Specific Fingerprint on ERα (ERα; [6]): 2+
binding of peptide, Class Specific Fingerprint on ERα (ERα; [7]): 2+
binding of peptide, Class Specific Fingerprint on ERα (ERα; [8]): 4+
binding of peptide, Class Specific Fingerprint on ERα (ERα; [9]): 2+
binding of peptide, Class Specific Fingerprint on ERα (ERα; buffer present during binding): 5+
Substance: S R T W E S P L G T W E W S R (SRTWESPLGTWEWSR) [#13 ER]

binding activity, ERβ and Estradiol (ERβ): 7+
binding activity, ERβ and buffer (ERβ): 5+
binding activity, ERβ and tamoxifen (ERβ): 2+
binding activity, ERα and buffer (ERα): 5+
binding activity, ERα and estradiol (ERα): 7+
binding activity, ERα and tamoxifen (ERα): 5+
Substance: SREGLLMRLLIGDSR [Peptide 14E-β]

binding activity, ERβ and Estradiol (ERβ): 7+
binding activity, ERβ and buffer (ERβ): 7+
binding activity, ERβ and tamoxifen (ERβ): 7+
binding activity, ERα and buffer (ERα): 2+
binding activity, ERα and estradiol (ERα): 2+
binding activity, ERα and tamoxifen (ERα): 3+
Substance: SREWEDGFGGRWLSR [Peptide 4t-β]

Second part, the substance before the results:

Substance: HSWLGPWRLSSIDLGG [Peptide 24b-β]
binding activity, ERβ and Estradiol (ERβ): 7+
binding activity, ERβ and buffer (ERβ): 7+
binding activity, ERβ and tamoxifen (ERβ): 7+
binding activity, ERα and buffer (ERα): 2+
binding activity, ERα and estradiol (ERα): 2+
binding activity, ERα and tamoxifen (ERα): 3+

Substance: S A A P R T I S H Y L M G G (SAAPRTISHYLMGG) [#48 ER]
binding of peptide, Class Specific Fingerprint on ERβ (ERβ; [1]): 1+
binding of peptide, Class Specific Fingerprint on ERβ (ERβ; [2]): 3+
binding of peptide, Class Specific Fingerprint on ERβ (ERβ; [3]): 1+
binding of peptide, Class Specific Fingerprint on ERβ (ERβ; DES present during binding): 3+
binding of peptide, Class Specific Fingerprint on ERβ (ERβ; [4]): 2+
binding of peptide, Class Specific Fingerprint on ERβ (ERβ; Estriol present during binding): 6+
binding of peptide, Class Specific Fingerprint on ERβ (ERβ; [5]): 2+
binding of peptide, Class Specific Fingerprint on ERβ (ERβ; [6]): 4+
binding of peptide, Class Specific Fingerprint on ERβ (ERβ; [7]): 4+
binding of peptide, Class Specific Fingerprint on ERβ (ERβ; [8]): 6+
binding of peptide, Class Specific Fingerprint on ERβ (ERβ; [9]): 4+
binding of peptide, Class Specific Fingerprint on ERβ (ERβ; buffer present during binding): 7+
binding of peptide, Class Specific Fingerprint on ERα (ERα; [1]): 1+
binding of peptide, Class Specific Fingerprint on ERα (ERα; [2]): 2+
binding of peptide, Class Specific Fingerprint on ERα (ERα; [3]): 1+
binding of peptide, Class Specific Fingerprint on ERα (ERα; DES present during binding): 2+
binding of peptide, Class Specific Fingerprint on ERα (ERα; [4]): 2+
binding of peptide, Class Specific Fingerprint on ERα (ERα; Estriol present during binding): 4+
binding of peptide, Class Specific Fingerprint on ERα (ERα; [5]): 1+
binding of peptide, Class Specific Fingerprint on ERα (ERα; [6]): 1+
binding of peptide, Class Specific Fingerprint on ERα (ERα; [7]): 2+
binding of peptide, Class Specific Fingerprint on ERα (ERα; [8]): 6+
binding of peptide, Class Specific Fingerprint on ERα (ERα; [9]): 1+
binding of peptide, Class Specific Fingerprint on ERα (ERα; buffer present during binding): 7+

Substance: SRDWRSGFLYELLSR [Peptide 4E-β]
binding activity, ERβ and Estradiol (ERβ): 7+
binding activity, ERβ and buffer (ERβ): 5+
binding activity, ERβ and tamoxifen (ERβ): 3+
binding activity, ERα and buffer (ERα): 6+
binding activity, ERα and estradiol (ERα): 5+
binding activity, ERα and tamoxifen (ERα): 6+

Substance: SRECVGGWCLAELSR [Peptide 18b-β]
binding activity, ERβ and Estradiol (ERβ): 7+
binding activity, ERβ and buffer (ERβ): 7+
binding activity, ERβ and tamoxifen (ERβ): 7+
binding activity, ERα and buffer (ERα): 2+
binding activity, ERα and estradiol (ERα): 2+
binding activity, ERα and tamoxifen (ERα): 2+

Substance: SREGWMGPWRLADSR [Peptide 12t-β]
binding activity, ERβ and Estradiol (ERβ): 7+
binding activity, ERβ and buffer (ERβ): 7+
binding activity, ERβ and tamoxifen (ERβ): 7+
binding activity, ERα and estradiol (ERα): 1+
binding activity, ERα and tamoxifen (ERα): 1+

Substance: SRHGILWDLLQGDSR [Peptide 2E-β]
binding activity, ERβ and Estradiol (ERβ): 7+
binding activity, ERβ and buffer (ERβ): 4+
binding activity, ERβ and tamoxifen (ERβ): 2+
binding activity, ERα and buffer (ERα): 6+
binding activity, ERα and estradiol (ERα): 7+
binding activity, ERα and tamoxifen (ERα): 5+
